Assay results reported in PMC4427203, “Tah1 helix-swap dimerization prevents mixed Hsp90 co-chaperone complexes” (Acta Crystallographica Section D: Biological Crystallography, 2015).
One block for each binder: values may come before it.

Columns and labels:
[1] = target: T1, Tah1 (full-length yeast Tah1) (S. cerevisiae, UniProt P25638 1-111); assay: crystal structure; Tah1 at 10 mg/ml with 5 mM … peptide; sitting drop, 100 mM MES pH 6.0, 200 mM ammonium chloride, 20% PEG 6000, 4°C; refined to 2 Å; details: both partners purified
T1 construct: Tah1, yeast (S. cerevisiae), synthetic full-length gene expressed from pRSET-A; In the crystal two Tah1 chains form a helix-swapped dimer; in solution Tah1 is mainly monomeric; also called TPR domain of Tah1
T1 sequence (looked up): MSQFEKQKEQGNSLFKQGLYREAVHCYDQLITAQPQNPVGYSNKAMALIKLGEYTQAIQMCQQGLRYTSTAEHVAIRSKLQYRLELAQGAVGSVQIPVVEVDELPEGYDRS

Flag-Tah1 = target: T2, Flag-Tah1 (S. cerevisiae, UniProt P25638 1-111); assay: pull-down; 70 µM Flag-Tah1 and Hsp90 600-709 with increasing AIP 172-315 or full-length AIP (5-10 molar excess); 20 mM HEPES pH 7.5, 150 mM NaCl, 10% glycerol, 0.5% IGEPAL, 2 mM EDTA; captured on anti-Flag M2 magnetic beads; eluate on SDS-PAGE; details: both partners purified
T2 construct: Tah1, yeast
T2 sequence (looked up): T1 sequence (looked up)

- binding result [1]: binds
B1: Hsp90 peptide EDASRMEEVD (peptide)
peptide: EDASRMEEVD
notes: C-terminal peptide of Hsp90 with the conserved MEEVD motif; also called MEEVD peptide of Hsp90; SRMEEVD peptide

- binding result (Flag-Tah1): binds
B2: Hsp90 600-709 (domain or fragment)
chain: not shown
notes: Hsp90 C-terminal fragment, residues 600-709; Used at 70 µM in the pull-down; also called cHsp90
